Measurements published in US20230181640A1 (SHANGHAI ABELZETA, published 2023).
Substitutions are numbered along the chain they refer to.

T1: hBCMA-ECD-Fc (fusion protein of human BCMA extracellular domain Met1-Ala54 and human IgG1 Fc fragment … (human, UniProt Q02223 1-54))
T1 construct: range 1-54; also the immunogen; also called soluble extracellular domain of human BCMA; not shown: human IgG1 Fc fragment, Pro100-Lys330
T1 sequence (looked up): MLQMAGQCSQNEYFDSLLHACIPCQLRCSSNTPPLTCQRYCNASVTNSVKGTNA

T2: human BCMA on cells (L-BCMA+, K562-BCMA+, A549-BCMA-1D6) (human, UniProt Q02223 1-184)
T2 construct: whole, on cells; the cell line of each assay is named under assay; also called L-BCMA-1E6-A4; K562-BCMA-B22D8
T2 sequence (looked up): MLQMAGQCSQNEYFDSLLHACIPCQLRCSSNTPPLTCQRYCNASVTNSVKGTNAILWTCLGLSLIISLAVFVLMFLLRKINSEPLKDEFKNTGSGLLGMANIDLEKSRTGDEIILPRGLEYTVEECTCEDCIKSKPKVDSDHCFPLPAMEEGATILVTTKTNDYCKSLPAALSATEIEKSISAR

T3: Recombinant human TACI/TNFRSF13B Fc chimeric protein, CF (hTACI-ECD-Fc) (human, UniProt O14836 1-165)
T3 construct: extracellular domain; bought reagent; not shown: Fc part of the bought chimera is not described
T3 sequence (looked up): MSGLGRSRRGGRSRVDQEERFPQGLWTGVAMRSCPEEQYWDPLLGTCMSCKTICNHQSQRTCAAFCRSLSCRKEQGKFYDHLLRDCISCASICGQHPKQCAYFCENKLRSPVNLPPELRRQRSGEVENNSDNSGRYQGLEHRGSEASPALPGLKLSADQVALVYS

B1: chimeric antibody of hybridoma 6G10-1D7 (antibody, human IgG1, kappa, V domains shown)
VH: EVQLQQSGPELVKPGASMKISCKASDYSFTDYIMTWVKQSHGKNLEWIGLINPYNGGTTYNQKFKDKATFTVDKSSTTAYMDLLSLTSEDSAVYYCARRGITTDYYTMDYWGQGTSVTVSS
VL: DIVMTQSQRFMSTSVGDRVSITCKASQSVGTAVAWYQQTPGQFPKLLIYSTSNRYTGVPDRFTGSGSGTDFTLTISNMQSEDLADYFCQQYSTYPLTFGSGTKLELKR
notes: IgG1,κ chimeric antibody, HEK 293T supernatant
B2: chimeric antibody of hybridoma 99B3G3 (antibody, human IgG1, kappa, V domains shown)
VH: EVQLQQSGPVLVKPGASVKMSCKASGYTFTDLYMNWVKQSHGKSLEWIGVINPYNGGTSYNQKFKAKATLTVDKSSITAYMELNSLTSEDSAVYYCARGDSIYVMDYWGQGTSVTVSS
VL: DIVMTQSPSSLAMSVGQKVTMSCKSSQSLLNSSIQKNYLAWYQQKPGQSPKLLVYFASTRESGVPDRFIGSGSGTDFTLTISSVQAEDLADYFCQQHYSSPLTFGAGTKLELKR
notes: as for B1
B3: chimeric antibody 107A9A4D2VH/VL-2 (antibody, human IgG1, kappa, V domains shown)
VH: B2 VH with V37L, S44R, A66G, I77S, E82D, V114F
VL: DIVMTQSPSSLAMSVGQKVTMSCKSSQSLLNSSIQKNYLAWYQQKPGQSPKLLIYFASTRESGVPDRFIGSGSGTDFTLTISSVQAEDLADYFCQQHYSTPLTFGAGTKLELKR
notes: IgG1,κ chimeric antibody, HEK 293T supernatant; also called 107A9A4D2VH paired with 107A9A4D2VL-2
B4: hybridoma antibody 6G10-1D7 (mAb001) (antibody, IgG1, V domains shown)
VH: B1 VH
VL: DIVMTQSQRFMSTSVGDRVSITCKASQSVGTAVAWYQQTPGQFPKLLIYSTSNRYTGVPDRFTGSGSGTDFTLTISNMQSEDLADYFCQQYSTYPLTFGSGTKLELK
notes: tested as supernatant and purified; also called CP01
B5: hybridoma antibody 105C10F1 (mAb004) (antibody, IgG2b, V domains shown)
VH: EVKLLQSGGGLVQPGGSLKLSCAASGIDFSRYWMSWVRRAPGKGLEWIGEINPDSSTINYAPSLKDKFIISRDAAKNTLYLQMSKVRSEDTALYYCATLYYDYDGDYAMDYWGQGTSVTVSS
VL: DIVMTPSQKFMSTSVGDRVSVTCKASQNVGTNVAWYQQKPGQSPKALIYSASYRYSGVPDRFTGSGSGTDFTLTISNVQSEDLAEYFCQHYNSYPFTFGSGTKLEIK
notes: murine hybridoma antibody, IgG2b,κ; re-named CP03; also called CP03
B6: hybridoma antibody 109C5F3C1 (mAb010) (antibody, V domains shown)
VH: EVQLQQSGPVLVKPGASVKMSCKVSGYTFTDYYMNWVKQSHGKSLEWIGVITPYNGANRYNQKFKGKATLTVDKSSSTAYMEVSSLTSEDSAVYYCARGDSIYVMDYWGQGTSVIVSS
VL: not shown
notes: murine; re-named CP06; also called CP06
B7: hybridoma antibody 102A12H6 (mAb003) (antibody, IgG1, V domains shown)
VH: EVQLQQSGPELVKPGASVKISCKASGYSFTGYYMNWVKQSPEKSLEWIGEINSSTGGTTYNQKFKAKATMTVDKSSNTAYMELKSLTSEDSAVYYCRYYGSDWHFDVWGTGTTVTVSS
VL: QIVLTQSPALMSASPGEKVTMTCSASSSVSYMYWYQQKPRSSPKPWIYLTSSLASGVPARFSGSGSGTSYSLTISTMEAEDAATYYCQQWSSDPLTFGAGTKLELK
notes: murine hybridoma antibody, IgG1,κ
B8: hybridoma antibody 113B3F12 (mAb008) (antibody, IgG2b, V domains shown)
VH: EVQLQQSGPVLVKPGASVKMSCKASGYTFTDYYMNWVKQSHGKSLEWIGVINPYNGGTDYNQKFKGKATLTVDKSSSTAYMELNSLTSEDSAVYYCARRRESYGTSYQGAYFDSWGQGTTLTVSS
VL: DIQMTQTTSSLSASLGDRVTISCRASQDISNYLNWYQQKPDGTVKLLIYYTSRLHSGVPSRFSGSGSGTDYSLSISDLEQEDIATYFCQQVITLPWTFGGGTKLEIK
notes: murine hybridoma antibody, IgG2b,κ
B9: hybridoma antibody 99B3G3 (mAb002) (antibody, IgG1, V domains shown)
VH: B2 VH
VL: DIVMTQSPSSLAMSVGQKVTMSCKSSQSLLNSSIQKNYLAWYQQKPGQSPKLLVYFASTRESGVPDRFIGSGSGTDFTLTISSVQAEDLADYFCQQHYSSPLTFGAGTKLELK
notes: murine hybridoma antibody, IgG1,κ; re-named CP02; also called CP02
B10: hybridoma antibody 100H2D12C6 (mAb009) (antibody, IgG1, V domains shown)
VH: B2 VH
VL: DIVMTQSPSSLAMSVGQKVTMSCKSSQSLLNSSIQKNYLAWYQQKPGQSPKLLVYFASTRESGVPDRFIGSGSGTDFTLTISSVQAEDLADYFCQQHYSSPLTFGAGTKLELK
notes: murine, IgG1,κ
B11: hybridoma clone 97B8G8D12 (antibody, V domains shown)
VH: B2 VH
VL: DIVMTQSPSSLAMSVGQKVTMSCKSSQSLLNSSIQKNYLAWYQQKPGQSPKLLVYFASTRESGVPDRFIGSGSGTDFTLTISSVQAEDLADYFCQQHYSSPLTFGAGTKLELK
notes: murine hybridoma supernatant; gave no antibody in small-batch production
B12: hybridoma clone 107A11F1B7 (antibody, V domains shown)
VH: B2 VH with V37L, S44R, A66G, I77S, E82D, V114F
VL: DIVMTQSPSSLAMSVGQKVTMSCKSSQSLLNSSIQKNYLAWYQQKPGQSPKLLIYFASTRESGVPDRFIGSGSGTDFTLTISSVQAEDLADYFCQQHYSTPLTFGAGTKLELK
notes: murine hybridoma supernatant; re-named CP04; also called CP04
B13: hybridoma antibody 151A9A4 (mAb012) (antibody, IgG2b, V domains shown)
VH: B2 VH with L32Y, Y33S, M34L, I51V, S59T, A66G, I77S, G99P, Y107S
VL: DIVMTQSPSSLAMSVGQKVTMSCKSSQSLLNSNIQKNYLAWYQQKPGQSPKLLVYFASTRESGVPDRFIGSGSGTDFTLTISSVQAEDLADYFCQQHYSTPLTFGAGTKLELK
notes: murine, IgG2b,κ; re-named CP08; also called CP08
B14: hybridoma antibody 143D6F4 (mAb011) (antibody, IgG2b, V domains shown)
VH: B2 VH with L32Y, Y33S, M34L, I51V, Y60H, A66G, I77S, G99P
VL: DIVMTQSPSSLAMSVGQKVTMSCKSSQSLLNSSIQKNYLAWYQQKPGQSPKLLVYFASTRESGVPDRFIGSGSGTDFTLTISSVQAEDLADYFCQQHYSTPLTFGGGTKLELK
notes: murine, IgG2b,κ; re-named CP07; also called CP07
B15: hybridoma clone 107A9A4D2 (antibody, V domains shown)
VH: B2 VH with V37L, S44R, A66G, I77S, E82D, V114F
VL: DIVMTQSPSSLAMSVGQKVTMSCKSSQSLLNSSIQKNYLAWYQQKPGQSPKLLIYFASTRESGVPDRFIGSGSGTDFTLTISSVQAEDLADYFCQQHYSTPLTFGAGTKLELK
notes: murine hybridoma supernatant
B16: hybridoma antibody 152D8E8 (mAb013) (antibody, IgG1, V domains shown)
VH: QVTLKESGPGILQSSQTLSLTCSFSGFSLNTSGMGVNWIRQSSGKDLEWLAHIYWNDDKRYNPSLKSRLTISKDTSRNQVFLRITSVDATDTATYFCCRSRLSFDYWGHGTTLTVSS
VL: DIKMTQSPSSMYVSLGERVTITCKASQDINRNLSWFQQKPGKSPKTLIYRANRLVDGVPLRFSGSGSGQDYSLTISSLEYEDMGIYYCLQYDEFPRTFGGGTKLEIK
notes: murine, IgG1,κ; re-named CP09; also called CP09

Target: T1, hBCMA-ECD-Fc (fusion protein of human …)
Test: ELISA, chimeric antibody supernatant; further: test concentration or dose not given here

Binder | ELISA (OD450 nm)
B1 | 2.35 OD450
B2 | 2.3 OD450
B3 | 2.45 OD450

Target: T2, human BCMA on cells (L-BCMA+, …)
Test: FACS, hybridoma supernatant, BCMA+ cells; further: test concentration or dose not given here

Binder | FACS (MFI)
B4 | 3880 MFI
B5 | 1960 MFI
B6 | 2890 MFI
B7 | 762 MFI
B8 | 3890 MFI
B9 | 1930 MFI
B10 | 1140 MFI
B11 | 358 MFI
B12 | 5180 MFI
B13 | 2920 MFI
B14 | 1510 MFI
B15 | 4650 MFI

Target: T2, human BCMA on cells (L-BCMA+, …)
Test: FACS, chimeric antibody supernatant, L-BCMA+ cells; further: test concentration or dose not given here

Binder | FACS (MFI)
B1 | 3470 MFI
B2 | 2180 MFI
B3 | 525 MFI

Target: T1, hBCMA-ECD-Fc (fusion protein of human …)
Test: ELISA, purified hybridoma antibody

Binder | EC50
B4 | 0.034 nM
B5 | 0.038 nM
B6 | 0.18 nM
B7 | 0.058 nM
B8 | 0.15 nM
B9 | 0.032 nM
B10 | 0.033 nM
B13 | 0.17 nM
B14 | 0.15 nM

Target: T4, cynoBCMA-ECD-Fc (machin BCMA extracellular domain Fc fusion) (machin)
T4 construct: extracellular domain; also called soluble extracellular domain of machin BCMA
Test: ELISA, purified hybridoma antibody

Binder | EC50
B6 | 0.18 nM
B7 | 0.062 nM
B9 | 0.23 nM
B10 | 0.033 nM
B13 | 0.15 nM
B14 | 0.17 nM

Target: T3, Recombinant human TACI/TNFRSF13B Fc …
Test: ELISA, purified hybridoma antibody

Binder | binding result
B4 | no binding
B16 | no binding
B5 | no binding
B6 | no binding
B7 | no binding
B9 | no binding
B10 | no binding
B13 | no binding
B14 | no binding

Target: T1, hBCMA-ECD-Fc (fusion protein of human …)
Test: ELISA, hybridoma supernatant

Binder | ELISA (OD450 nm)
B4 | 2.9 OD450
B5 | 3.42 OD450
B6 | 3.57 OD450
B7 | 3.6 OD450
B8 | 3.9 OD450
B9 | 3.68 OD450
B10 | 3.37 OD450
B11 | 3.06 OD450
B12 | 3.53 OD450
B13 | 3.34 OD450
B14 | 3.26 OD450
B15 | 3.51 OD450

Target: T4, cynoBCMA-ECD-Fc (machin BCMA …)
Test: ELISA, hybridoma supernatant

Binder | ELISA (OD450 nm)
B4 | 1.95 OD450
B16 | 3.31 OD450
B5 | 0.18 OD450
B6 | 3.41 OD450
B7 | 3.53 OD450
B8 | 0.18 OD450
B9 | 3.65 OD450
B10 | 3.48 OD450
B11 | 3.37 OD450
B12 | 3.5 OD450
B13 | 3.4 OD450
B14 | 3.4 OD450
B15 | 3.58 OD450

Target: T5, Recombinant hFc fusion protein control (NC-Fc)
T5 construct: negative control antigen of the screens; also called NC-hFc
Test: ELISA, hybridoma supernatant

Binder | ELISA (OD450 nm)
B4 | 0.08 OD450
B16 | 0.23 OD450
B5 | 0.1 OD450
B6 | 0.57 OD450
B7 | 0.12 OD450
B8 | 0.14 OD450
B9 | 0.14 OD450
B10 | 0.13 OD450
B11 | 0.13 OD450
B13 | 0.24 OD450
B14 | 0.2 OD450
